Bridge positions count the residues as written; N and C are the ends. Ends that are not written are not given here.
How the values were obtained:
[1] = molecular target: CD3εδ-Ig heterodimer (human) (UniProt P07766); assay: BIACORE (SPR); Affinity (nM)
[2] = molecular target: CD3εδ-Ig heterodimer (human) (UniProt P07766); assay: ELISA, anti-CD3 mAb immobilized, fusion protein titrated
[3] = molecular target: CD3γ-Ig (human) (UniProt P09693); assay: as above
[4] = molecular target: CD3ε-Ig (human) (UniProt P07766); assay: as above
Sequence of CD3ε-Ig (human) (P07766 23-126): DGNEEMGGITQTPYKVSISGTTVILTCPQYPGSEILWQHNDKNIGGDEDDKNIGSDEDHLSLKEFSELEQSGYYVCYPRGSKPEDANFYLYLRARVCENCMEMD

[5] = molecular target: CD3εγ-Ig heterodimer (human) (UniProt P07766); assay: as above
Sequence of CD3εγ-Ig heterodimer (human) (P07766 23-126, chain 1 of 2): as the sequence (P07766 23-126) above
Sequence of CD3εγ-Ig heterodimer (human) (P09693 23-116, chain 2 of 2, further chain): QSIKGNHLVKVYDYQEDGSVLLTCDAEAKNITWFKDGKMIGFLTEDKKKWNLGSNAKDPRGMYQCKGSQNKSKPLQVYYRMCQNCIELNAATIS

[6] = molecular target: anti-CD3 mAb G19-4; assay: ELISA: immobilized G19-4 captures titrated CD3-Ig; detection with anti-human IgG hinge-CH2-CH3 HRP conjugate
[7] = molecular target: T1, CD28huIg (UniProt P10747 19-152); assay: BIACORE (SPR), fusion protein immobilized, peptide in solution
T1 construct: Immobilized on the BIACORE chip; construct not described; also called CD28Ig; CD28-Ig; not shown: human Ig part (huIg), not further described
Method: BIACORE uses surface plasmon resonance (SPR) which occurs when surface plasmon waves are excited at a metal/liquid interface. Light is directed at, and reflected due to bimolecular interactions between analyte (in solution) and ligand (immobilized). CD3εδhuIg, CD3εεhuIg and CD28huIg were covalently immobilized on a carboxymethy dextran chip using EDC/NHS chemistry followed by blocking with ethanol amine. Peptides were dissolved in HBS buffer at pH 7.2 with or without 1% DMSO, and were allowed to pass over these fusion protein-immobilized surfaces. Non-specific binding was substrated by passing these peptides over a controlled surface prepared by immobilizing EDC/NHS alone followed by ethanolamine.

[8] = molecular target: CD3εδ-Ig heterodimer (human) (UniProt P07766); assay: BIACORE (SPR), fusion protein immobilized, peptide in solution; printed as Binding Affinity

Sequence of CD3εδ-Ig heterodimer (human) (P07766 23-126, stated change not applied, chain 1 of 2): as the sequence (P07766 23-126) above
Sequence of CD3εδ-Ig heterodimer (human) (P04234 22-105, stated change not applied, chain 2 of 2, further chain): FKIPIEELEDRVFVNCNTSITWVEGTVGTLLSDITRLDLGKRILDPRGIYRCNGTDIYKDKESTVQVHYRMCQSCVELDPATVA
Sequence of CD3γ-Ig (human) (P09693 23-116): as the sequence (P09693 23-116, chain 2 of 2, further chain) above

anti-CD3 mAb G19-4 (antibody) was tested, and the Kd [1] was 1.28 nM, the saturating concentration of the fusion protein [2] was 4 µg/mL and the saturating concentration of the fusion protein [3] was > 100 µg/mL. For the same molecule, the saturating concentration of the fusion protein [4] was > 100 µg/mL and the saturating concentration of the fusion protein [5] was 20 µg/mL.

anti-CD3 mAb BC3 (antibody) was tested, and the Kd [1] was 5.7 nM.

With “CD3εγ-Ig heterodimer (from UniProt P07766 23-126; P09693 23-116) (Fc fusion)” the EC50 (read off the curve) [6] was 0.8 µg/mL.

“CD3εδ-Ig heterodimer (from UniProt P07766 23-126; P04234 22-105) (Fc fusion)” showed an EC50 (read off the curve) [6] of 0.1 µg/mL.

For anti-CD3 mAb 64.1 (antibody), the Kd [1] was 7.58 nM.

YCFDWKNCY (disulfide 2-8 (inferred)) [YCFDWKNCY (SEQ ID NO:80)]: no binding [7].

YCYDDHTCY (disulfide 2-8 (inferred)) [YCYDDHTCY (SEQ ID NO:78)]: no binding [7].

YCYDDHQCY (disulfide 2-8 (inferred)) [YCYDDHQCY (SEQ ID NO:79)]: no binding [7].

Molecule YCYDYDGCY (disulfide 2-8 (inferred)) [… (SEQ ID NO:75)] has a Kd [8] of 10000 nM.

YCYDYDGCY (disulfide 2-8 (inferred)) [YCYDYDGCY (SEQ ID NO:75)]: no binding [7].

YCYDYDFCY (disulfide 2-8 (inferred)) [YCYDYDFCY (SEQ ID NO:77)]: no binding [7].

YCYDYDYCY (disulfide 2-8 (inferred)) [YCYDYDYCY (SEQ ID NO:76)]: no binding [7].

Work on YCFDWKNCY (disulfide 2-8 (inferred)) [… (SEQ ID NO:80)] yielded a Kd [8] of 500 nM.

Source: US20040253250A1 (XCYTE THERAPIES, published 2004)
